Numbering of substitutions follows the chain as printed.
Legend:
[1] = molecular target: T1, human CFHL3-His (ATX-P-58) (human, UniProt Q02985 19-330); test: Carterra LSA biosensor, mAb printed on chip, human CFHL3-His at 550 nM
T1 construct: also called human CFHR3 protein; CFHR3; not shown: C-terminal His tag (and linker)
T1 sequence (looked up): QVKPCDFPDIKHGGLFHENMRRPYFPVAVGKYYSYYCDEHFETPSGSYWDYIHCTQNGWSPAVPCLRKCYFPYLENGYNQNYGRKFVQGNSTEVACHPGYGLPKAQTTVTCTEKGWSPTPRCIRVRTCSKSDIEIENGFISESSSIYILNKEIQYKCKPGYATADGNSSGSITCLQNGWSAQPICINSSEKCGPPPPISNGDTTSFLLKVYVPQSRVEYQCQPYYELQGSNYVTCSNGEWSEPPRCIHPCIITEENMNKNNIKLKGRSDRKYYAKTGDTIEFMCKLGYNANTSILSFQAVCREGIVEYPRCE
Method: (§1) Experiments were also conducted to determine the reactivity of the CFHR4 antibodies with the human CFHR3 protein (FIG. 9). The binding experiments were performed on Carterra LSA with a running buffer of PBS pH 7.40, 1% BSA, 0.05% Tween20. Antibodies were covalently printed on an HC30M chip. Chip was activated with 33 mM s-NHS and 133 mM EDC in 100 mM MES pH 5.5 for 7 minutes. Antibodies at 10 mg/ml in acetic acid buffer pH 4.5 were used for printing for 10 min. The printed chip was then quenched with 1 M ethanolamine pH 8.5 for 7 min. For the reactivity assay, ATX-P-58, human CFHL3-His, at 550 nM was tested with 5 min association followed by 15 min dissociation. Results were processed and analyzed in Carterra LSA Kinetics Software. The data was referenced with the interstitial reference spots and double-referenced to a buffer cycle, and then the responses (nm) after association were reported. Isotype control was used to determine the cutoff response for positive binding.

[2] = molecular target: T2, Human CFHL1-Y402H-His (ATX-P-421) (human); test: Carterra LSA biosensor, mAb printed on chip, human CFHL1-Y402H-His at 380 nM
T2 construct: also called human CFHL-1 (Y402H) protein
T2 chain: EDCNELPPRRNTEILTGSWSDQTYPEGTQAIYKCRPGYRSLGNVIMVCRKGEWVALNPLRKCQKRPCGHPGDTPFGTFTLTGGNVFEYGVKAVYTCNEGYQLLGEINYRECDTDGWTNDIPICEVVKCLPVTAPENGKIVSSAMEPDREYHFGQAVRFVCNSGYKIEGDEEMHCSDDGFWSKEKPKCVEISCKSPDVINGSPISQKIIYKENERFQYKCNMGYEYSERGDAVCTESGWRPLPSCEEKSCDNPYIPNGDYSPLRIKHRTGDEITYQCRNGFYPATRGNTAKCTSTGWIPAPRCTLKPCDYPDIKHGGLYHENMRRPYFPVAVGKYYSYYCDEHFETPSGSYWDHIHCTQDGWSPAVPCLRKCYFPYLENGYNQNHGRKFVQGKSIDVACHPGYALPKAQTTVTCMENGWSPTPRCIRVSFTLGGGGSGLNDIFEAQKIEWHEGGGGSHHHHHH
Method: as §1, with “CFHL-1 (Y402H)” for “CFHR3”, “10).” for “9).”, “ATX-P-421,” for “ATX-P-58,”, “CFHL1-Y402H-His,” for “CFHL3-His,”, “380” for “550”

[3] = molecular target: T2, Human CFHL1-Y402H-His (ATX-P-421); test: Carterra LSA biosensor, mAb printed on chip, cutoff set by isotype control
Method: as §1
as §1, with “CFHL-1 (Y402H)” for “CFHR3”, “10).” for “9).”, “ATX-P-421,” for “ATX-P-58,”, “CFHL1-Y402H-His,” for “CFHL3-His,”, “380” for “550”

B1: ATX-P-588 (antibody, human IgG1, kappa, N297A, V domains shown)
VH: EVQLVESGGGLVQPGRSLRLSCAASGFTFEDYAMHWVRQAPGKGLEWVSGISWNSGSIGYADSVKGRFTISRDNAKKSLYLQMNSLRAEDTALYYCTKDRDDGYNYAGVFDYWGQGTLVTVSS
VL: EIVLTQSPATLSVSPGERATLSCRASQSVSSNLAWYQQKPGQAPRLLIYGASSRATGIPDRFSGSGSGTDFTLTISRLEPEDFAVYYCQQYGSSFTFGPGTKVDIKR
[1]
  binding result: binds
[2]
  binding result: binds

B2: ATX-P-600 (antibody, human IgG1, kappa, N297A, V domains shown)
VH: B1 VH with E30D, A40V, K43R, N54S, S55G, A75S, K77N, D101E, A107G
VL: EIVLTQSPGTLSLSPGERATLSCRASQNVRGSYLAWYQQKPGQAPRLLIYGASNRATDIPDRFSGSGSGTDFTLTISGLEPEDFVVYYCQQYGSSYTFGQGTKVEIKR
[1]
  binding result: binds
[2]
  binding result: binds

B3: ATX-P-578 (antibody, human IgG1, kappa, N297A, V domains shown)
VH: EVQLVESGGGLVQPGGSLRLSCAASGFTFSRYSMNWVRQAPGKGLEWVSYISSSSSTIFHADSVKGRFTISRDNAKNSLYLQMNSLRDEDTAVYYCARGNWNYYYMDVWGKGTTVTVSS
VL: DIQMTQSPSTLSASVGDRVTISCRASQSVNSWLAWYQQKPGKAPKLLIYKASNLEGGVPSSFSGSGSGTEFTLTISSLQPDDFATYYCQQYDTSWTFGQGTKVEIKR
[1]
  binding result: binds
[2]
  binding result: binds

B4: ATX-P-603 (antibody, human IgG1, kappa, N297A, V domains shown)
VH: QVQLQESGPGLVKPSGTLSLTCAVSGGSISGSHWWSWFRQPPGKGLEWIGEIYHTGSTNKNPSLKSRVTISLDKSKNQFSLRLRSVTDADTAVYYCARDQYTGSPRDAFDIWGQGTMVTVSS
VL: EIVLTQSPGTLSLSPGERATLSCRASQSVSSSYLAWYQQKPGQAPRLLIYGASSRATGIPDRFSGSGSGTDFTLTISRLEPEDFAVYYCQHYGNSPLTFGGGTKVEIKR
[3]
  binding result: no binding (tested: 380 nM)

B5: ATX-P-583 (antibody, human IgG1, kappa, N297A, V domains shown)
VH: QVQLVQSGAEVKKPGASVKVSCKASGYTFTTYGISWVRQAPGQGLEWMGWISAYSGNTHYAQSLQDRVTMTTDTSTSTAYMEVRSLRSDDTAVYYCAKDEGYCSSTGCLNLFDPWGQGTLVTVSS
VL: DIQMTQSPSSLSASVGDRVTITCRASQNIGSYLNWYQQKPGNAPKLLIYATSTLQSGVPSRFSGSGSGTDFTLIISSLHPEDFTVYYCQQSFIIPFTFGPGTKVDIKR
[1]
  binding result: binds
[2]
  binding result: binds

B6: ATX-P-592 (antibody, human IgG1, kappa, N297A, V domains shown)
VH: QVQLQQSGPGLVKPSQTLSLTCAISGDSVSSNSAAWNWIRQSPSRGLEWLGRTYYRSKWYSDYPLSVKSRITINPDTSKNQFSLQLNSVTPEDTAVYYCARDSGIVETTPFDYWGQGTLVTVSS
VL: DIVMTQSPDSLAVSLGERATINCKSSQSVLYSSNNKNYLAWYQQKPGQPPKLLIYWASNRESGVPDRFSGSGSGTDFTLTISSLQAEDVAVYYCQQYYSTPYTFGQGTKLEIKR
[1]
  binding result: binds
[3]
  binding result: no binding (tested: 380 nM)

B7: ATX-P-572 (antibody, human IgG1, kappa, N297A, V domains shown)
VH: B6 VH with R52M, D62V, Y63F, P64A, L65V, P75T, D102E, S103G, E107G, T108A
VL: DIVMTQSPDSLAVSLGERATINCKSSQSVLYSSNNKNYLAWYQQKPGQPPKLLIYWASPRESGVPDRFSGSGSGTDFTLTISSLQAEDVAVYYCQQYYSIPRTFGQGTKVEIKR
[1]
  binding result: binds
[3]
  binding result: no binding (tested: 380 nM)

B8: ATX-P-595 (antibody, human IgG1, kappa, N297A, V domains shown)
VH: B6 VH with Y60F, S61N, P64A, Q85H, D102E, S103P, E107A, T108P, T109G
VL: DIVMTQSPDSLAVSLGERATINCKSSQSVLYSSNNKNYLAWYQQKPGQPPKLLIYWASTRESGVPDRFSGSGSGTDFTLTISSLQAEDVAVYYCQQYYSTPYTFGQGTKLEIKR
[1]
  binding result: binds
[2]
  binding result: binds

B9: ATX-P-596 (antibody, human IgG1, kappa, N297A, V domains shown)
VH: EVQLVESGGGLVQPGRSLRLSCAASGFSFDDYAMHWVRQVPGKGLEWVSGISWTGGSVGYADPVKGRFTISRDNAKNSLYLQMNSLRPEDTALYYCAKDMGDGYSRNWPFDYWGQGTLVTVSS
VL: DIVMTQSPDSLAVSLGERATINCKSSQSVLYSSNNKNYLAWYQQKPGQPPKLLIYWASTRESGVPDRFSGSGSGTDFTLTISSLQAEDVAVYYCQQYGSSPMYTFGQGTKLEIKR
[1]
  binding result: binds
[2]
  binding result: binds

B10: ATX-P-594 (antibody, human IgG1, kappa, N297A, V domains shown)
VH: QVQLQQSGPGLVKPSQTLSLTCAISGDSVSSNSASWNWIRQSPSRGLEWLGTTYYRSKWFNVYAVSVKSRITINPDTSKNQFSLHLNSVTPEDTAIYFCTRDRGDLLHWYFDLWGRGTLVTVSS
VL: EIVLTQSPGTLSLSPGERATLSCRASQSVSSSYLAWYQQKPGQSPRLLIYGASSRATGIPDRFSGSGSGTDFTLTISRLEPEDFAVYYCQQYGRSVTFGGGTKLEIKR
[1]
  binding result: binds
[2]
  binding result: binds

B11: ATX-P-569 (antibody, human IgG1, kappa, N297A, V domains shown)
VH: EVQLVESGGGLAQFGRSLRLSCAASGFTFDDYAMHWLRQAPGMGLEWVSGISWNSGSIGYADSVKGRFTIARDNAKNSVHLQMNSLRAEDTALYYCAKDIGNGYTKGDVFDIWGQGTMVTVSS
VL: DIQMTQSPSTLSASVGDSVTITCRASQNIITWLAWYQQKPGKAPNLLIYKASSLESGVPSRFSGSGSGTEFTLTISSLQPDDFATYYCQQYSSYSYTFGQGTKLEIKR
[1]
  binding result: binds
[3]
  binding result: no binding (tested: 380 nM)

B12: ATX-P-587 (antibody, human IgG1, kappa, N297A, V domains shown)
VH: QVQLQQSGPGLVKPSQTLSLTCAISGDSVSSNSAAWNWIRQSPSRGLEWLGKTYYRSKWYNYYALSVKSRITINPDTSKNQFSLHLNSVTPEDTAVYYCARDGDYYLPSPFDLWGHGTMVTVSS
VL: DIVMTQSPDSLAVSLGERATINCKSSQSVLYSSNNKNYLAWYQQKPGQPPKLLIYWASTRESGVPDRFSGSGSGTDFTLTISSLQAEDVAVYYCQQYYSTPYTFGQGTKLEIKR
[1]
  binding result: binds
[2]
  binding result: binds

B13: ATX-P-576 (antibody, human IgG1, kappa, N297A, V domains shown)
VH: EVQLVESGGGLVQPGRSLRLSCTASGFTFDDYEMHWVRQAPGKGLEWVSDISRNSGRIGYADSVKGRFTISRDNAKNSLYLQMNSLRAEDTALYYCAKDIWGSGYFDYWGQGILVTVSS
VL: DIQMTQSPSSVSASVGDRVTITCRTSQGIRNWLAWYQQKPGKAPKLLIYAASSLQTGGPSRFSGSGSGTDFTLTISSLQPEDFATYYCQQANSFPYTFGQGTKLEIKR
[1]
  binding result: binds
[2]
  binding result: binds

B14: ATX-P-561 (antibody, human IgG1, kappa, N297A, V domains shown)
VH: QVQLQQSGPGLVKPSQTLSLTCAISGDSVSSNSAAWNWIRQSPSRGLEWLGRTYYRSKWYNGYAVSMKSRITINPDTSKNQFSLQLNSVTPEDTAMYYCAREGVGATTGFDYWGQGTLVTVSS
VL: B13 VL with V11L, T25A, R30S, N31S, A34T, T56G, G58V, Y96P, L104V
[1]
  binding result: binds
[2]
  binding result: binds

B15: ATX-P-577 (antibody, human IgG1, kappa, N297A, V domains shown)
VH: QVQLQESGPGLVKPSGTLSLTCAVSGGSISSSNWWTWVRQPPGKGLEWIGETYHDGSTNYNPSLKSRVTISVDKSKNQFSLKLSSVTAADTAVYYCLEFYFDYWGQGTLVTVSS
VL: DIQMTQSPSSLSASVGDRVTITCRASQDIRNDLGWYQQKPGKVPKRLIYAASSLQSGVPSRFSGSGSGTEFTLTISSLQPEDFASYYCLQYNNYPFTLGPGTKVDIKR
[1]
  binding result: binds
[2]
  binding result: binds

B16: ATX-P-579 (antibody, human IgG1, kappa, N297A, V domains shown)
VH: QVQLQESGPGLVKPSGTLSLTCAVSGASISTSNWWTWVRQPPGKGLEWIGEIYHDGSTNYSPSLQSRVTISVDKSKNQFSLTLTSVTAADTAIYYCGDFYIDVWGNGTTVTVSS
VL: B15 VL with D28G, N31K, V43A, A50T, S53T, S85T, L98F
[1]
  binding result: binds
[2]
  binding result: binds

B17: ATX-P-580 (antibody, human IgG1, kappa, N297A, V domains shown)
VH: B15 VH with S31T, N33D, T52I, D55S, L97A, E98D, F99W, Y103L, Q106R
VL: B15 VL with D28G, V43A, T74A, S85T, Q90H, Y91F, N93S, L98F
[1]
  binding result: binds
[2]
  binding result: binds
